The values below come from patent US20040241778.

In data set [1] the target is IGFBP-3 (commercially available, upstate biotechnology), P17936.
For data set [2], the target named is IGFBP-5 (commercially available, upstate biotechnology), P24593.
Data set [3] has as its target IGFBP-5-FLAG protein (full-length IGFBP-5 with the FLAG tag of SEQ ID NO: 12 at the C-terminus), P24593.

Sequence of IGFBP-5-FLAG protein (full-length IGFBP-5 with the FLAG tag of SEQ ID NO: 12 at the C-terminus), P24593 (P24593 other isoform, or with tags, fused parts or gaps): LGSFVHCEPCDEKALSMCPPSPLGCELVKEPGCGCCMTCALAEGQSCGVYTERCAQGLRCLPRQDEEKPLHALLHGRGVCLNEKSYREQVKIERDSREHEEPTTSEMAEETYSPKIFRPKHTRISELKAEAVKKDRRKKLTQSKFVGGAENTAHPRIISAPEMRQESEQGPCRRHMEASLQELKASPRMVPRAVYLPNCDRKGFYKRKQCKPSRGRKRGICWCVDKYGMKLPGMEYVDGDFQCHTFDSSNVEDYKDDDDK
Sequence of IGFBP-3 (commercially available, upstate biotechnology), P17936 (P17936 28-291): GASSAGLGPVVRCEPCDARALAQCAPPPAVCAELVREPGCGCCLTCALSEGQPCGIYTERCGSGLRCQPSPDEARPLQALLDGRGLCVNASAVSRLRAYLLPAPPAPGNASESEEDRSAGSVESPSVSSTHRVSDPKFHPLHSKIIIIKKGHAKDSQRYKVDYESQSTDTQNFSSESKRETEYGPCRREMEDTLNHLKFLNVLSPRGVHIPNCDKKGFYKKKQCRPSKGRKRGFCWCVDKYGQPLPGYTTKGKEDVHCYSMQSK
Sequence of IGFBP-5 (commercially available, upstate biotechnology), P24593 (P24593 21-272): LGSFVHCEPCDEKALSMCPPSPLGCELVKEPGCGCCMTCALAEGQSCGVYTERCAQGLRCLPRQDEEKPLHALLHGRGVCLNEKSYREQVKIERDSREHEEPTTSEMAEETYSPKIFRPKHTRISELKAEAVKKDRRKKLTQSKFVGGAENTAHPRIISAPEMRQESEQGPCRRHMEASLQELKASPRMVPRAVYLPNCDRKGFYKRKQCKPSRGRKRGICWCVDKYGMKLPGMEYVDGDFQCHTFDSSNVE

B1: MD8S-FLAG protein (extracellular region of human MD8, amino acids 1 to 646 of SEQ ID NO: 2, with a C-terminal FLAG tag) (protein)
chain: IAPSRPWALMEQYEVVLPRRLPGPRVRRALPSHLGLHPERVSYVLGATGHNFTLHLRKNRDLLGSGYTETYTAANGSEVTEQPRGQDHCFYQGHVEGYPDSAASLSTCAGLRGFFQVGSDLHLIEPLDEGGEGGRHAVYQAEHLLQTAGTCGVSDDSLGSLLGPRTAAVFRPRPGDSLPSRETRYVELYVVVDNAEFQMLGSEAAVRHRVLEVVNHVDKLYQKLNFRVVLVGLEIWNSQDRFHVSPDPSVTLENLLTWQARQRTRRHLHDNVQLITGVDFTGTTVGFARVSAMCSHSSGAVNQDHSKNPVGVACTMAHEMGHNLGMDHDENVQGCRCQERFEAGRCIMAGSIGSSFPRMFSDCSQAYLESFLERPQSVCLANAPDLSHLVGGPVCGNLFVERGEQCDCGPPEDCRNRCCNSTTCQLAEGAQCAHGTCCQECKVKPAGELCRPKKDMCDLEEFCDGRHPECPEDAFQENGTPCSGGYCYNGACPTLAQQCQAFWGPGGQAAEESCFSYDILPGCKASRYRADMCGVLQCKGGQQPLGRAICIVDVCHALTTEDGTAYEPVPEGTRCGPEKVCWKGRCQDLHVYRSSNCSAQCHNHGVCNHKQECHCHAGWAPPHCAKLLTEDYKDDDDK
As to B1, the “activity of digesting IGFBP-3 (overnight reaction at 37 C, SDS-PAGE and western blot)” value in data set [1] was “a new band of 25 kDa was detected in the case of IGFBP-3”. In data set [2], the “activity of digesting IGFBP-5 (overnight reaction at 37 C, SDS-PAGE and western blot)” value was “new plural bands within the range of 12 to 25 kDa were detected in the case of IGFBP-5”. Further, in data set [3], the “activity of digesting recombinant IGFBP-5 (overnight reaction at 37 C, SDS-PAGE and western blot with biotinylated M2 antibody)” value is on record as “recombinant IGFBP-5, which was detected in the control without the MD8S enzyme solution, was made to disappear by adding the MD8S enzyme solution”.
